Test results from paper PMC12658102 (2025).
Values belong to the molecule of their own block, whether it stands above or below them.

Experiments:
[1] = molecular target: TDP-43 C-terminal domain, wild type (human); experiment: AUC; sedimentation velocity, 25 °C, 50,000 rpm, absorbance at 280 nm, solution without salt; WT CTD at 33, 58 and 107 µM; c(s) analysis and global Lamm equation modelling of the 58 and 107 µM data (SEDPHAT), monomer-dimer-tetramer model (steps: dimer to monomers; tetramer to dimers); monomer-tetramer model fits similarly
TDP-43 CTD F316A = experiment: NMR chemical shift perturbation (15N CSP) as a function of protein concentration; conditions: pH 6.1, without salt; 90 μM vs 20 μM protein; read off a plot
TDP-43 CTD L330A = experiment: as above; conditions: pH 6.1, without salt; 90 μM vs 20 μM protein; read off a plot
TDP-43 CTD M323A = experiment: as above; conditions: pH 6.1, without salt; 90 μM vs 20 μM protein; read off a plot
TDP-43 CTD M339A = experiment: as above; conditions: pH 6.1, without salt; 90 μM vs 20 μM protein; read off a plot
TDP-43 CTD Q343A = experiment: as above; conditions: pH 6.1, without salt; 90 μM vs 20 μM protein; read off a plot
TDP-43 CTD S317A = experiment: as above; conditions: pH 6.1, without salt; 90 μM vs 20 μM protein; read off a plot
TDP-43 CTD S342A = experiment: as above; conditions: pH 6.1, without salt; 90 μM vs 20 μM protein; read off a plot
[2] = molecular target: TDP-43 CTD S→E S305C cross-linked (human) (UniProt Q13148); experiment: AUC; dimer-tetramer; conditions: domain or fragment
[3] = molecular target: TDP-43 CTD S→E S305C cross-linked (human) (UniProt Q13148); experiment: AUC; tetramer-octamer; conditions: domain or fragment
[4] = molecular target: TDP-43 CTD S→E S317C cross-linked (human) (UniProt Q13148); experiment: AUC; dimer-tetramer, global Lamm equation modeling; conditions: domain or fragment
[5] = molecular target: TDP-43 CTD S→E S317C cross-linked (human) (UniProt Q13148); experiment: AUC; dimer-tetramer, isotherm fit (dimer concentration units); conditions: domain or fragment
[6] = molecular target: the molecule itself; experiment: analytical ultracentrifugation (SEDPHAT)

Molecule: TDP-43 C-terminal domain, wild type F316A
ratio to parent (TDP-43 CTD F316A): 0.27

Molecule: TDP-43 C-terminal domain, wild type M323A
ratio to parent (TDP-43 CTD M323A): 0.19

Molecule: TDP-43 C-terminal domain, wild type S342A
ratio to parent (TDP-43 CTD S342A): 1.1

Molecule: TDP-43 CTD S→E S317C cross-linked (from UniProt Q13148)
Kd [4]: 46 µM | Kd [5]: 45 µM

Molecule: NPAMMAAAQAALQSSWGMMGMLA [TDP-43 CTD conserved region]
Kd [6]: 2400 µM

Molecule: NPAMMAAAQAALQSSWGMMGMLA [TDP-43 dimer CTD conserved region]
Kd [6]: 2.7 µM

Further lines, results first:

Kd,dim-tet (dimer-tetramer step) [1]: 2.7 µM | Kd,mon-dim (monomer-dimer step) [1]: 2400 µM | ceq (concentration for equal population of monomer and tetramer) [1]: 250 to 300 µM | stoichiometry N [1]: 4
Molecule: TDP-43 C-terminal domain, wild type (domain or fragment)

ratio to parent (TDP-43 CTD L330A): 0.13
Molecule: TDP-43 C-terminal domain, wild type L330A

ratio to parent (TDP-43 CTD M339A): 0.63
Molecule: TDP-43 C-terminal domain, wild type M339A

ratio to parent (TDP-43 CTD Q343A): 1.2
Molecule: TDP-43 C-terminal domain, wild type Q343A

ratio to parent (TDP-43 CTD S317A): 1.2
Molecule: TDP-43 C-terminal domain, wild type S317A

Kd [2]: 58 µM | Kd [3]: 4.7 µM
Molecule: TDP-43 CTD S→E S305C cross-linked (from UniProt Q13148)
